Results on eight molecules are retold here after patent US12617863 (CCOA THERAPEUTICS, dated 2026).

Experiment [1] addresses T1, human platelet glycoprotein I(b)α (GPIbα) on human platelets (human, UniProt P07359 17-652).
T1 construct: whole, on cells; also called human GPIbα
As to the kind of experiment: flow cytometry on washed platelets, 2.5-5 µg/mL, FITC anti-human-Fab detection. The protocol: (§1) Specificity. Human and mouse platelet-rich plasma (PRP) was prepared by centrifugation at 300 g for 7 min, and was washed by transferring 200 µL PRP into 10 mL PBS followed with 800 g centrifugation for 10 min. The supernatant was then removed and platelets were re-suspended in 200 µL PBS. Washed platelets (10 µL) were incubated with the different antibodies (2.5-5 µg/mL) in a 200 µL system at room temperature for 30 min, and detected by FITC labeled anti-human-Fab antibody. These eight selected humanized Fabs H001-H008, the scFv and the chimeric protein all bound to both human and wild-type mouse platelets, but not GPIbα deficient mouse platelets, indicating the specificity of the humanized Fabs to platelet GPIbα (FIGS. 4 and 19).

The target in experiment [2] is T2, mouse platelet glycoprotein I(b)α (GPIbα) on wild-type mouse platelets (mouse, UniProt O35930 17-734).
T2 construct: whole, on cells; also called mouse GPIbα
T2 sequence (looked up): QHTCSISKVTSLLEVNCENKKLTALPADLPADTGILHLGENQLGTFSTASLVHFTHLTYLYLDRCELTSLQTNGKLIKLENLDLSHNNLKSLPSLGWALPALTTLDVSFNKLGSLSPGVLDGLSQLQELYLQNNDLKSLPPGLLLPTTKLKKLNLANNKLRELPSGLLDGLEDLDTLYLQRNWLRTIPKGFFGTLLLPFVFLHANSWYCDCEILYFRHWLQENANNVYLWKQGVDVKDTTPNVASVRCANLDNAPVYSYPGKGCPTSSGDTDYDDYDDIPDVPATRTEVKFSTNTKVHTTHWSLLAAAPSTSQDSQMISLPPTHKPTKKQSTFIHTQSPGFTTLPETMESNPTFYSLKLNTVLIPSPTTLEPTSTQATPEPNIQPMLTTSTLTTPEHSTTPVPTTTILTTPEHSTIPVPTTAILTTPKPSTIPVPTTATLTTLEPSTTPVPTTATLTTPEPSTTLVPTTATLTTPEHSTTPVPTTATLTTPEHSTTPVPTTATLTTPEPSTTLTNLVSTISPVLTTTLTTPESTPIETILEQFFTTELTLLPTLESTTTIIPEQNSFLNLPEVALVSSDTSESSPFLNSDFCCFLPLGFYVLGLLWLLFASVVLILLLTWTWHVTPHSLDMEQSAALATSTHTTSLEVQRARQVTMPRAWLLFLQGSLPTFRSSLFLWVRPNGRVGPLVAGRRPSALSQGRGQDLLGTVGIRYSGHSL
Kind of experiment: flow cytometry, washed wild-type mouse platelets, Fab 5 µg/mL, FITC anti-human-Fab detection. The procedure:
as §1

Experiment [3] has as its target T1, human platelet glycoprotein I(b)α …. As to the kind of experiment: flow cytometry, human platelets from PRP, FITC anti-human kappa chain detection. The protocol: (§2) Platelets (2×10^5) from mouse, dog, human, rat and rabbit PRP were transferred into 200 µL PBS containing a serial concentration of the Fabs H001 or H002 at 50, 16.7, 5.6, 1.8, 0.6, 0.2 nM (for mouse and dog), at 200, 67, 22, 7.4, 2.5, 0.8, 0.3, 0.1 nM (for human and rat) and at 500, 100, 20, 4, 0.8 nM (for rabbit). After a 30 min incubation, a detection antibody (FITC-labeled anti-human Kappa chain, 1:200) was added and incubated in darkness for 15 min. Flow cytometry was performed using the BD LSR Fortessa™ X-20. H001 and H002 also bound to rat, dog and rabbit platelets (FIG. 5).

For experiment [4], the target named is T3, recombinant hexa-histidine tagged GPIbα.
T3 construct: Held on a Ni-NTA SPR sensor by its hexa-histidine tag; also called recombinant GPIbα; immobilized GPIbα
Kind of experiment: SPR, His-tagged GPIbα held on Ni-NTA sensor, kinetics binding model. The protocol: (§3) The biosensors were rinsed with copious amounts of anhydrous ethanol followed by 16 hour incubation in a solution of 1 mM mercaptopropionic acid in dimethylformamide. Following the incubation, SPR biosensors were rinsed with copious amounts of dimethylformamide followed by anhydrous ethanol and finally ddH₂O. The biosensors were then incubated in 40 mM 1-Ethyl-3-(3-dimethylaminopropyl) carbodiimide and 20 mM N-Hydroxysuccinimide dissolved in ddH₂O for 1 hour. Sensors were then rinsed with copious amounts of ddH₂O and then incubated with 100 mM Nα,Nα-Bis(carboxymethyl)-L-lysine hydrate for 4 hour. Following the incubation, the biosensing surfaces were rinsed with ddH2O. The final step before SPR experiments was to expose the functionalized biosensing surfaces with 100 mM NiCl₂ for 1 hour.
(§4) The SPR experiments were performed on a Biosensing Instrument 4000 SPR. The functionalized biosensors were loaded onto the instrument and the biosensor was equilibrated with running buffer (10 mM tris(hydroxymethyl) aminomethane, 140 mM NaCl, 20 mM Imidazole pH=7.4) at a flow rate of 40 μL/min. For binding measurements 25 μL of 500 nM hexa-histidine tagged GPIbα was injected over the biosensing surface immobilizing the GPIbα to the SPR sensor surface. […] The resulting data was analyzed using the instrument included SPR analysis software. […]

Experiment [5] has as its target T4, rat platelet glycoprotein I(b)α (GPIbα) on rat platelets (rat).
T4 construct: whole, on cells; also called rat GPIbα
Kind of experiment: flow cytometry, rat platelets from PRP, FITC anti-human kappa chain detection. The procedure: as §2

Experiment [6] has as its target T5, dog platelet glycoprotein I(b)α (GPIbα) on dog platelets (dog, UniProt Q28256 17-677).
T5 construct: whole, on cells; also called dog GPIbα
T5 sequence (looked up): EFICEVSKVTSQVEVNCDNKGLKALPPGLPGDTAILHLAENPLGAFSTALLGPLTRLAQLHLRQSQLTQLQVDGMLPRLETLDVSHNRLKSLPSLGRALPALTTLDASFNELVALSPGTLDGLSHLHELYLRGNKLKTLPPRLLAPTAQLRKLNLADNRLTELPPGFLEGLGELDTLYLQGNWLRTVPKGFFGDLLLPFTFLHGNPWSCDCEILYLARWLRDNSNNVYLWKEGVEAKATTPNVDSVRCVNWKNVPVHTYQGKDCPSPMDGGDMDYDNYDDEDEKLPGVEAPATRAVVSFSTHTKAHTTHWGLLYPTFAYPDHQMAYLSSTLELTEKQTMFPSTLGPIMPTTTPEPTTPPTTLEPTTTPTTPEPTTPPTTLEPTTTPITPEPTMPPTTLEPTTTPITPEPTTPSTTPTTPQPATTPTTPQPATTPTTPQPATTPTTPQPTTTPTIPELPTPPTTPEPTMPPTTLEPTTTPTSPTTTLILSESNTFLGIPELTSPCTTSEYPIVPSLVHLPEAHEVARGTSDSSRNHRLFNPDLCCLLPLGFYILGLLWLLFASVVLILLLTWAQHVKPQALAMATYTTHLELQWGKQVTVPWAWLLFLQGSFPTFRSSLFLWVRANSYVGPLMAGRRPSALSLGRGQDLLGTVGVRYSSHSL
As to the kind of experiment: flow cytometry, dog platelets from PRP, FITC anti-human kappa chain detection. The procedure:
as §2

Experiment [7] has as its target T3, recombinant hexa-histidine tagged GPIbα. Kind of experiment: SPR steady-state response against H001 concentration, His-tagged GPIbα immobilised. The protocol: as §3, §4
The target is the same in experiment [8]. Kind of experiment: SPR, size of shifts against concentration, one site binding model. The protocol:
The SPR experiments were performed on a Biosensing Instrument 4000 SPR. The functionalized biosensors were loaded onto the instrument and the biosensor was equilibrated with running buffer (10 mM tris(hydroxymethyl) aminomethane, 140 mM NaCl, 20 mM Imidazole pH=7.4) at a flow rate of 40 μL/min. For binding measurements 25 μL of 500 nM hexa-histidine tagged GPIbα was injected over the biosensing surface immobilizing the GPIbα to the SPR sensor surface. The baseline was allowed to equilibrate followed by injection of 25 μL of the desired concentration of ligand (either Fab H001 or control). Biosensing surfaces were regenerated between ligand injections by injection of 100 μL of 500 mM imidazole in running buffer, followed by 100 μL of 100 mM NiCl_2. The resulting data was analyzed using the instrument included SPR analysis software.
GPIbα immobilized SPR biosensors were exposed to 500, 100, 50 and 10 nM of Fab H001 antibody and 100 nM control antibody (PSI E1, an antibody against GPIIbIIIa). […] In contrast the Fab H001 antibody clearly bound GPIbα producing clear SPR shifts with only partial dissociation after the end of the injection (FIG. 7A).

For experiment [9], the target named is T2, mouse platelet glycoprotein I(b)α …. Kind of experiment: flow cytometry, mouse platelets from PRP, FITC anti-human kappa chain detection. The procedure: as §2

Changes are numbered by the printed parent chain.

T1 sequence (P07359 17-652): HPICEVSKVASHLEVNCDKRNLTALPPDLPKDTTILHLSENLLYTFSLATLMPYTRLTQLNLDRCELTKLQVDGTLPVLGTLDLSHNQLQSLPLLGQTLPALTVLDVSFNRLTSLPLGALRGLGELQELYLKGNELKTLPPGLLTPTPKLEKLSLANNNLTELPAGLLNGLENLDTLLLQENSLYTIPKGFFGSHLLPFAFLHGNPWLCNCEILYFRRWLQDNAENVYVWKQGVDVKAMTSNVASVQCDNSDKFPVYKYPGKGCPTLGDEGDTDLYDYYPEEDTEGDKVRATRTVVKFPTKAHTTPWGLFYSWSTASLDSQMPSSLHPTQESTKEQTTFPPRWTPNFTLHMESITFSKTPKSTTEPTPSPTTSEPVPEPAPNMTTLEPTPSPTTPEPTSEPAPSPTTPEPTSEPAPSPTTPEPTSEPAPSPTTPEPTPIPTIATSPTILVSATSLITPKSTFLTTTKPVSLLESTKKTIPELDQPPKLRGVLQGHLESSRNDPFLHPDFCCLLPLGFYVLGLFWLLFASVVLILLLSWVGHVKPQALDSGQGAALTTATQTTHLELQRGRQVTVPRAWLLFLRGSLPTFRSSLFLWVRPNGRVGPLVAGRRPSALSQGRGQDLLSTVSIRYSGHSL
T3 sequence (P07359 17-652): as above

B1: humanized Fab H004 (Fab, V domains shown)
VH: EVQLVESGGGLVQPGGSLRLSCAASGFTFSSFAMSWVRQAPGKGLEWVSSITSAGTPYYPDSVLGRFTISRDNSKNTLYLQMNSLRAEDTAVYYCAKSRGYEDYFDYWGQGTLVTVSS
VL: DIQMTQSPSSLSASVGDRVTITCKSSQSLLNSRNQKNYLAWYQQKPGKAPKLLIYFTSTRESGVPSRFSGSGSGTDFTLTISSLQPEDFATYYCQQHYSSPWTFGQGTKVEIKR
notes: Fab with human IgG1 CH1 and human kappa constant region; also called VH3 + VL2
Turning to B1, the binding result in [1] and in experiment [2] was “binds” each time.

B2: humanized Fab H005 (Fab, V domains shown)
VH: B1 VH
VL: DIVMTQSPLSLPVTPGEPASISCKSSQSLLNSRNQKNYLAWYLQKPGQSPQLLIYFTSTRESGVPDRFSGSGSGTDFTLKISRVEAEDVGVYYCQQHYSSPWTFGQGTKVEIKR
notes: Fab with human IgG1 CH1 and human kappa constant region; also called VH3 + VL3
Turning to B2, the binding result in experiment [1] and in [2] was “binds” in each case.

B3: humanized Fab H003 (Fab, V domains shown)
VH: B1 VH with Q13K, S74A, T77S, K97R, L113T, S118R
VL: DIVMTQSPDSLAVSLGERATINCKSSQSLLNSRNQKNYLAWYQQKPGQPPKLLIYFTSTRESGVPDRFSGSGSGTDFTLTISSLQAEDVAVYYCQQHYSSPWTFGGGTKLEIKR
notes: Fab with human IgG1 CH1 and human kappa constant region; also called VH2 + VL1
Take B3: the binding result in experiment [1] and in experiment [2] was “binds” throughout.

B4: humanized Fab H006 (Fab, V domains shown)
VH: B1 VH with E1Q, L11V, G16R, S49A, K97R
VL: B3 VL
notes: Fab with human IgG1 CH1 and human kappa constant region; also called VH4 + VL1
Turning to B4, the binding result in [1] and in experiment [2] was “binds” each time.

B5: humanized Fab H001 (Fab, V domains shown)
VH: B1 VH with E1Q, Q13K, V37I, S74A, T77S, K97R
VL: B1 VL
notes: Fab with human IgG1 CH1 and human kappa constant region; also called Fab H001 antibody; VH1 + VL2
B5: the “EC50 (read off the curve)” value is around 10 nM in experiment [3], around 3 nM in experiment [5], around 3 nM in experiment [6] and around 80 nM in experiment [7]. For the same molecule, the dissociation constant Kd in [4] worked out at 4.4 nM; in experiment [8], 8 nM. In experiment [4], the koff stood at 0.11 s⁻¹. Moreover, in experiment [2], the binding result is recorded as “binds”.

B6: humanized Fab H007 (Fab, V domains shown)
VH: B1 VH with E1Q, L11V, G16R, S49A, K97R
VL: B1 VL
notes: Fab with human IgG1 CH1 and human kappa constant region; also called VH4 + VL2
Regarding B6, the binding result in [1] and in [2] was “binds” throughout.

B7: humanized Fab H002 (Fab, V domains shown)
VH: B1 VH with E1Q, Q13K, V37I, S74A, T77S, K97R
VL: B2 VL
notes: Fab with human IgG1 CH1 and human kappa constant region; also called Fab H002 antibody; VH1 + VL3
In the case of B7, the binding result in [3] and in experiment [9] was “binds” throughout. The entries for the 50% effective concentration (EC50 (read off the curve)) in experiment [5] and in experiment [6] were around 3 nM and around 2 nM, respectively.

B8: humanized Fab H008 (Fab, V domains shown)
VH: B1 VH with E1Q, L11V, G16R, S49A, K97R
VL: B2 VL
notes: Fab with human IgG1 CH1 and human kappa constant region; also called VH4 + VL3
For B8, the binding result in experiment [1] and in [2] was “binds” in each case.
